In US9816117B2, “Methods, reagents and cells for biosynthesizing compounds” (INVISTA North America S.á r.l., priority 2014, dated 2017):

What was measured:
[1] = carboxylate reductase enzyme activity assay (adipate to adipate semialdehyde); format: biochemical; conditions: purified enzyme enhanced by sfp gene product; 2 mM adipate; room temperature, 20 min; against empty vector control (FIG. 12)
Protocol: A sequence encoding a HIS-tag was added to the genes from Segniliparus rugosus and Segniliparus rotundus that encode the carboxylate reductases of SEQ ID NOs: 4 and 6, respectively (see FIG. 9), such that N-terminal HIS tagged carboxylate reductases could be produced. Each of the modified genes was cloned into a pET Duet expression vector along with a sfp gene encoding a HIS-tagged phosphopantetheine transferase from Bacillus subtilis, both under the T7 promoter. Each expression vector was transformed into a BL21[DE3] E. coli host and the resulting recombinant E. coli strains were cultivated at 37° C. in a 250 mL shake flask culture containing 50 mL LB media and antibiotic selection pressure, with shaking at 230 rpm. Each culture was induced overnight at 37° C. using an auto-induction media.
The pellet from each induced shake flask culture was harvested via centrifugation. Each pellet was resuspended and lysed via sonication, and the cell debris was separated from the supernatant via centrifugation. […]
Enzyme activity assays (i.e., from adipate to adipate semialdehyde) were performed in triplicate in a buffer composed of a final concentration of 50 mM HEPES buffer (pH=7.5), 2 mM adipate, 10 mM MgCl2, 1 mM ATP and 1 mM NADPH. […] The consumption of NADPH was monitored by absorbance at 340 nm.

[2] = carboxylate reductase enzyme activity assay (adipate semialdehyde to hexanedial); format: biochemical; conditions: purified enzyme enhanced by sfp gene product; 2 mM adipate semialdehyde; room temperature, 20 min; against empty vector control (FIG. 15)
Protocol: The N-terminal His-tagged carboxylate reductase of SEQ ID NO 6 (see Example 2, Example 3 and FIG. 9) was assayed using adipate semialdehyde as substrate. The enzyme activity assay was performed in triplicate in a buffer composed of a final concentration of 50 mM HEPES buffer (pH=7.5), 2 mM adipate semialdehyde, 10 mM MgCl2, 1 mM ATP and 1 mM NADPH. The enzyme activity assay reaction was initiated by adding purified carboxylate reductase and phosphopantetheine transferase or the empty vector control to the assay buffer containing the adipate semialdehyde and then incubated at room temperature for 20 min. The consumption of NADPH was monitored by absorbance at 340 nm.

B1: SEQ ID NO 6: Segniliparus rotundus carboxylate reductase (Genbank Accession No. ADG98140.1) (protein, listed as Segniliparus rotundus)
chain: MTQSHTQGPQASAAHSRLARRAAELLATDPQAAATLPDPEVVRQATRPGLRLAERVDAILSGYADRPALGQRSFQTVKDPITGRSSVELLPTFDTITYRELRERATAIASDLAHHPQAPAKPGDFLASIGFISVDYVAIDIAGVFAGLTAVPLQTGATLATLTAITAETAPTLFAASIEHLPTAVDAVLATPSVRRLLVFDYRAGSDEDREAVEAAKRKIADAGSSVLVDVLDEVIARGKSAPKAPLPPATDAGDDSLSLLIYTSGSTGTPKGAMYPERNVAHFWGGVWAAAFDEDAAPPVPAINITFLPLSHVASRLSLMPTLARGGLMHFVAKSDLSTLFEDLKLARPTNLFLVPRVVEMLYQHYQSELDRRGVQDGTREAEAVKDDLRTGLLGGRILTAGFGSAPLSAELAGFIESLLQIHLVDGYGSTEAGPVWRDGYLVKPPVTDYKLIDVPELGYFSTDSPHPRGELAIKTQTILPGYYKRPETTAEVFDEDGFYLTGDVVAQIGPEQFAYVDRRKNVLKLSQGEFVTLAKLEAAYSSSPLVRQLFVYGSSERSYLLAVIVPTPDALKKFGVGEAAKAALGESLQKIARDEGLQSYEVPRDFIIETDPFTVENGLLSDARKSLRPKLKEHYGERLEAMYKELADGQANELRDIRRGVQQRPTLETVRRAAAAMLGASAAEIKPDAHFTDLGGDSLSALTFSNFLHDLFEVDVPVGVIVSAANTLGSVAEHIDAQLAGGRARPTFATVHGKGSTTIKASDLTLDKFIDEQTLEAAKHLPKPADPPRTVLLTGANGWLGRFLALEWLERLAPAGGKLITIVRGKDAAQAKARLDAAYESGDPKLAGHYQDLAATTLEVLAGDFSEPRLGLDEATWNRLADEVDFISHPGALVNHVLPYNQLFGPNVAGVAEIIKLAITTRIKPVTYLSTVAVAAGVEPSALDEDGDIRTVSAERSVDEGYANGYGNSKWGGEVLLREAHDRTGLPVRVFRSDMILAHQKYTGQVNATDQFTRLVQSLLATGLAPKSFYELDAQGNRQRAHYDGIPVDFTAESITTLGGDGLEGYRSYNVFNPHRDGVGLDEFVDWLIEAGHPITRIDDYDQWLSRFETSLRGLPESKRQASVLPLLHAFARPGPAVDGSPFRNTVFRTDVQKAKIGAEHDIPHLGKALVLKYADDIKQLGLL
With B1 the “carboxylate reductase activity: acceptance of adipate as substrate (consumption of NADPH, absorbance at 340 nm)” value [1] was “accepted adipate as substrate” and the “carboxylate reductase activity: acceptance of adipate semialdehyde as substrate (consumption of NADPH, absorbance at 340 nm)” value [2] was “accepted adipate semialdehyde as substrate”.
